Experimental data as given in US20240059766A1.

Columns and labels:
[1] = biological target: T1, Tau(pS404) peptide (human); experiment: competition ELISA, TauS404 coated at 1 ug/mL, VY014 titrated; peptide 12 at 1 µg/mL as competitor in solution
T1 sequence (peptide, only S404 phosphorylated (pS404)): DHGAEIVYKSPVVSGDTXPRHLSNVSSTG

[2] = biological target: T1, Tau(pS404) peptide (human); experiment: direct ELISA, TauS404 coated at 1 ug/mL, antibody titrated
[3] = biological target: T1, Tau(pS404) peptide (human); experiment: competition ELISA, TauS404 coated at 1 ug/mL, VY014 titrated; AC04 peptide at 1 µg/mL as competitor in solution

B1: VY014 (antibody, V domains shown)
VH: EVQLVESGGGLVQPGGSLRLSCAASGFTFNNYDMHWVRQAAGKGLEWVSTIGAAGDTYYPGSVKGRFIISRENAKNSLYLQMNSLRAGDTAVYYCARAGETLEGATIGYYYGMDVWGQGTTVTVSS
VL: DILMTQSPLSLPVTPGEPASISCRSSQSLLHSNGYNYLDWYLQKPGQSPQLLIYLGSNRASGVPDRFSGSGSGTDFTLKFSRVEAEDVGLYYCMQALQIPLTFGGGTKVEIK
Q: For B1, which EC50 (read off the curve) [1] is on record?
A: 0.2 nM

Q: And the EC50 (read off the curve) [2]?
A: 0.06 nM

Q: And the EC50 (read off the curve) [3]?
A: 0.08 nM
